Measured values taken from patent publication US20150344570A1 (published 2015).

B1: GpH7-A5/GpH7-B3 variant A330_11K/GpL16-k0 (antibody, human IgG1, kappa)
heavy 1: not shown
heavy 2: not shown
light: DIVMTQSPLSLPVTPGEPASISCQASESLVHSNRNTYLHWYLQKPGQSPQLLIYKVSNRFSGVPDRFSGSGSGTDFTLKISRVEAEDVGVYYCSQNTHVPPTFGQGTKVEIERTVAAPSVFIFPPSDEQLKSGTASVVCLLNNFYPREAKVQWKVDNALQSGNSQESVTEQDSKDSTYSLSSTLTLSKADYEKHKVYACEVTHQGLSSPVTKSFNRGEC
notes: change in the GpH7-B3 H chain only; also called He Ab
B2: GpH7-A5/GpH7-B3 variant E333_08L/GpL16-k0 (antibody, human IgG1, kappa)
heavy 1: not shown
heavy 2: not shown
light: B1 light
notes: as for B1
B3: GpH7-A5/GpH7-B3 variant E333_04F/GpL16-k0 (antibody, human IgG1, kappa)
heavy 1: not shown
heavy 2: not shown
light: B1 light
notes: as for B1
B4: GpH7-A5/GpH7-B3 variant A327_03V/GpL16-k0 (antibody, human IgG1, kappa)
heavy 1: not shown
heavy 2: not shown
light: B1 light
notes: as for B1
B5: GpH7-A5/GpH7-B3 variant A330_16H/GpL16-k0 (antibody, human IgG1, kappa)
heavy 1: not shown
heavy 2: not shown
light: B1 light
notes: as for B1
B6: GpH7-A5/GpH7-B3 variant A330_19Q/GpL16-k0 (antibody, human IgG1, kappa)
heavy 1: not shown
heavy 2: not shown
light: B1 light
notes: as for B1
B7: GpH7-A5/GpH7-B3 variant A330_03V/GpL16-k0 (antibody, human IgG1, kappa)
heavy 1: not shown
heavy 2: not shown
light: B1 light
notes: as for B1
B8: GpH7-A5/GpH7-B3 variant Y300_12R/GpL16-k0 (antibody, human IgG1, kappa)
heavy 1: not shown
heavy 2: not shown
light: B1 light
notes: He Ab; IgG1, mutation in one H chain
B9: GpH7-A5/GpH7-B3 variant K334_01G/GpL16-k0 (antibody, human IgG1, kappa)
heavy 1: not shown
heavy 2: not shown
light: B1 light
notes: as for B1
B10: GpH7-A5/GpH7-B3 variant E333_16H/GpL16-k0 (antibody, human IgG1, kappa)
heavy 1: not shown
heavy 2: not shown
light: B1 light
notes: as for B1
B11: GpH7-A5/GpH7-B3 variant E333_13S/GpL16-k0 (antibody, human IgG1, kappa)
heavy 1: not shown
heavy 2: not shown
light: B1 light
notes: as for B1
B12: GpH7-A5/GpH7-B3 variant A330_06M/GpL16-k0 (antibody, human IgG1, kappa)
heavy 1: not shown
heavy 2: not shown
light: B1 light
notes: as for B1
B13: GpH7-A5/GpH7-B3 variant E333_05P/GpL16-k0 (antibody, human IgG1, kappa)
heavy 1: not shown
heavy 2: not shown
light: B1 light
notes: as for B1
B14: GpH7-A5/GpH7-B3 variant Y300_09D/GpL16-k0 (antibody, human IgG1, kappa)
heavy 1: not shown
heavy 2: not shown
light: B1 light
notes: as for B8
B15: GpH7-A5/GpH7-B3 variant P329_01G/GpL16-k0 (antibody, human IgG1, kappa)
heavy 1: not shown
heavy 2: not shown
light: B1 light
notes: as for B1
B16: GpH7-A5/GpH7-B3 variant I336_01G/GpL16-k0 (antibody, human IgG1, kappa)
heavy 1: not shown
heavy 2: not shown
light: B1 light
notes: as for B1
B17: GpH7-A5/GpH7-B3 variant Y300_16H/GpL16-k0 (antibody, human IgG1, kappa)
heavy 1: not shown
heavy 2: not shown
light: B1 light
notes: as for B8
B18: GpH7-A5/GpH7-B3 variant A327_06M/GpL16-k0 (antibody, human IgG1, kappa)
heavy 1: not shown
heavy 2: not shown
light: B1 light
notes: as for B1
B19: GpH7-A5/GpH7-B3 variant A330_10E/GpL16-k0 (antibody, human IgG1, kappa)
heavy 1: not shown
heavy 2: not shown
light: B1 light
notes: as for B1
B20: GpH7-A5/GpH7-B3 variant E333_11K/GpL16-k0 (antibody, human IgG1, kappa)
heavy 1: not shown
heavy 2: not shown
light: B1 light
notes: as for B1
B21: GpH7-A5/GpH7-B3 variant Y300_13S/GpL16-k0 (antibody, human IgG1, kappa)
heavy 1: not shown
heavy 2: not shown
light: B1 light
notes: as for B8
B22: GpH7-A5/GpH7-B3 variant Y300_20W/GpL16-k0 (antibody, human IgG1, kappa)
heavy 1: not shown
heavy 2: not shown
light: B1 light
notes: as for B8
B23: GpH7-A5/GpH7-B3 variant I336_03V/GpL16-k0 (antibody, human IgG1, kappa)
heavy 1: not shown
heavy 2: not shown
light: B1 light
notes: as for B1
B24: GpH7-A5/GpH7-B3 variant E333_14T/GpL16-k0 (antibody, human IgG1, kappa)
heavy 1: not shown
heavy 2: not shown
light: B1 light
notes: as for B1

What was measured:
[1] = target: T1, FcγRIa extracellular domain with C-terminal His tag (human, UniProt P12314 16-292); test: SPR, binding relative to GpH7-A5/GpH7-B3/GpL16-k0 = 100
T1 construct: extracellular domain; soluble analyte in Biacore; also called FcgRI; not shown: His tag at the C terminus
T1 sequence (P12314 16-292): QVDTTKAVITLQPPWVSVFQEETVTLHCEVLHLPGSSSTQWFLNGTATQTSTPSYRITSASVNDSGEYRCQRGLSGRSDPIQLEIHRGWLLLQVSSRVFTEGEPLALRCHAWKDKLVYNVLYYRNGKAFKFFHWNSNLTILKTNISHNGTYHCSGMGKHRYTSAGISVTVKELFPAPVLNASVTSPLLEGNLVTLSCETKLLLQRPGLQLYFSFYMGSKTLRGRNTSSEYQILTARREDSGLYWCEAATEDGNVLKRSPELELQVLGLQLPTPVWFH

[2] = target: T2, FcγRIIb extracellular domain with C-terminal His tag (human, UniProt P31994 43-217); test: as above
T2 construct: extracellular domain; soluble analyte in Biacore; also called FcgRIIb; not shown: His tag at the C terminus
T2 sequence (looked up): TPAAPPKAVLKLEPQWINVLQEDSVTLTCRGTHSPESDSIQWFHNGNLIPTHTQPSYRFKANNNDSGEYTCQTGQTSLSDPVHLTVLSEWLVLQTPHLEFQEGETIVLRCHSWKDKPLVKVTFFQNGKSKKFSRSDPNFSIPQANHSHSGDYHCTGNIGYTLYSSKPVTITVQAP

[3] = target: T3, FcγRIIb extracellular domain with C-terminal His tag (human, UniProt P31994 43-217); test: SPR (Biacore), captured antibody, FcγR as analyte; relative binding
T3 construct: extracellular domain; expressed in FreeStyle293 cells; analyte in Biacore; also called FcgRIIb; 2b
T3 sequence (looked up): T2 sequence (looked up)

[4] = target: T4, FcγRIa extracellular domain with C-terminal His tag (human, UniProt P12314 16-292); test: as above
T4 construct: extracellular domain; expressed in FreeStyle293 cells; analyte in Biacore; also called FcgRI; 1a
T4 sequence (P12314 16-292): as the sequence (P12314 16-292) above

Binder | He/Con_1a [1] | He/Con_2b [2] | He/Con_2b [3] | He/Con_1a [4]
B1 | 103 % of control | 95 % of control |  | 
B2 | 102 % of control | 95 % of control |  | 
B3 | 102 % of control | 94.6 % of control |  | 
B4 | 103 % of control | 94.7 % of control |  | 
B5 | 106 % of control | 87.6 % of control |  | 
B6 | 105 % of control | 90.8 % of control |  | 
B7 | 106 % of control | 52.4 % of control |  | 
B8 |  |  | 41.2 % of HeCon Ab (GpH7-A5/GpH7-B3/GpL16-k0 = 100) | 105 % of HeCon Ab (GpH7-A5/GpH7-B3/GpL16-k0 = 100)
B9 | 104 % of control | 92.5 % of control |  | 
B10 | 101 % of control | 83.3 % of control |  | 
B11 | 103 % of control | 81.8 % of control |  | 
B12 | 105 % of control | 80.5 % of control |  | 
B13 | 102 % of control | 97.7 % of control |  | 
B14 |  |  | 93.2 % of HeCon Ab (GpH7-A5/GpH7-B3/GpL16-k0 = 100) | 112 % of HeCon Ab (GpH7-A5/GpH7-B3/GpL16-k0 = 100)
B15 | 101 % of control | 41.7 % of control |  | 
B16 | 109 % of control | 90.1 % of control |  | 
B17 |  |  | 87 % of HeCon Ab (GpH7-A5/GpH7-B3/GpL16-k0 = 100) | 111 % of HeCon Ab (GpH7-A5/GpH7-B3/GpL16-k0 = 100)
B18 | 103 % of control | 59.5 % of control |  | 
B19 | 107 % of control | 70.1 % of control |  | 
B20 | 102 % of control | 80.6 % of control |  | 
B21 |  |  | 53.9 % of HeCon Ab (GpH7-A5/GpH7-B3/GpL16-k0 = 100) | 111 % of HeCon Ab (GpH7-A5/GpH7-B3/GpL16-k0 = 100)
B22 |  |  | 84.1 % of HeCon Ab (GpH7-A5/GpH7-B3/GpL16-k0 = 100) | 112 % of HeCon Ab (GpH7-A5/GpH7-B3/GpL16-k0 = 100)
B23 | 105 % of control | 90.3 % of control |  | 
B24 | 102 % of control | 86.1 % of control |  | 
